In the supplement of paper PMC12042874 one finds amyloid nucleation score data, which are given here for 140 substances.

± gives the uncertainty stated by the source.

This series in a line: amyloid nucleation score (Sup35N fusion, yeast selection) (log enrichment); library NNK1; higher = more nucleation; inactive = no reads after selection. The gist of the method: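 In psi-negative yeast, Sup35N fusions carrying peptides of 20 random codons were induced with 100 μM copper sulfate for 24 hours. The cells then grew 7 days at 30°C on medium lacking adenine and uracil, and plasmid inserts from input and output were Illumina-sequenced, excluding sequences with under 100 input reads. Nucleation score is the DiMSum log enrichment of output over input reads, centred on the mode score of non-aggregating sequences.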
As for LDTYRVNWMMRLATYNMMVM, the amyloid nucleation score came to 0.312 ± 0.4.
In turn, VCKWNSSIFLYNRPSVSAAV gave an amyloid nucleation score of 0.123 ± 0.4.
The value for AVPCSC was 0.189 ± 0.3.
For HLINVQ, the amyloid nucleation score was 0.632 ± 0.53.
The value for IVASYRYNYMYDLHLLSALQ was “inactive”; that for LYFITTM was 1.18 ± 0.59.
In the case of ENITPPLYNDDYRYQ it was 0.305 ± 0.58.
The value for VTARTRSDS was 0.55 ± 0.55.
As for LLYRMKVFADVGGDVLKSEG, the amyloid nucleation score entry was “inactive”.
NSWRRE came in with an amyloid nucleation score of 1.02 ± 0.93.
In the case of LTFLRIYAIDSEPHLSGTML it was -0.51 ± 0.71; in that of SKSFDRKMVC, -0.092 ± 0.33; in that of KMSAWQFGGHVLCNARMGYE, -0.112 ± 0.36.
VRGYGGVC showed an amyloid nucleation score of -0.296 ± 0.3.
In the case of LCVRAIVRSCNSWKKYSFPR it was 0.031 ± 1.
The value for RFWINIPKYSTIL was -0.751 ± 1.7; that for NLSQSLVHRVSSVEYTLRLL was “inactive”; that for MEVISRSVLSSLSWFGTVEE was 0.598 ± 0.5.
In the case of TIECFYGVVSFRHNQYYGAQ it was 2.16 ± 0.17.
As for KLQMGFIKMFAGQECFDVHA, the amyloid nucleation score entry was “inactive”.
Substance WSLVDDPLVFERLFWPCYQ registered an amyloid nucleation score of 0.142 ± 0.31.
The value for VVVVDDHDDVALSFIHTMSR was 0.164 ± 0.43.
The value for FILPLCMGVLLSAIETLGTC was 1.09 ± 0.81; that for QHTNTSLSVTTPPVLYWNHC was 0.419 ± 0.45.
Substance ILTFQSCRRFACKAFMFRRR gave an amyloid nucleation score of 2.07 ± 0.16.
In the case of LTGGVDHC it was 0.138 ± 0.32.
In the case of VGTTDG it was “inactive”; in that of RTSLSLSKVAFNWMFQRYSS, 0.181 ± 1; in that of SSYFTKM, 0.548 ± 0.34.
The substance RYYNFFMGLTWG had an amyloid nucleation score of -0.395 ± 0.48.
Regarding NDTMWMSSGLSPCVSSPSLG, the amyloid nucleation score was -0.252 ± 1.4.
The substance ASFEKFNNVTLGCSTDSE displayed an amyloid nucleation score of 0.666 ± 0.48.
The value for FPEWNSWYQRRVMAKGAHGY was 0.58 ± 1.1; that for IMHQYRRGYDRDLNWNRMFR was 0.035 ± 0.72.
As to RNCFMGRTVNSVSNYVESSW, the amyloid nucleation score result is “inactive”.
In the case of QELICMGSEYVFPNWTSFRA it was -0.412 ± 0.49.
The value for ILVGCSKSRRLNGGQLLIPS was 0.314 ± 0.45; that for VCGEYEITVKIISVSRSNKC was 1.45 ± 0.26; that for FRDFMMTFMFPRDMSSGAVG was 0.067 ± 0.4.
In the case of DWDSALPSLNFDSETPFYKS it was -0.649 ± 0.48.
Substance MIRFKQT displayed an amyloid nucleation score of -0.651 ± 0.45.
The value for QNLYVLDSYSLLNNFVSCII was -0.623 ± 0.35; that for CVHAHTTHITSCRARPSTEA was 0.435 ± 0.28.
With DSRNTDFTCYFEIYYCCVNL, the amyloid nucleation score turned out to be 8.069 ± 0.063.
The substance YDTLMMNNLEMSTFVRMGLW showed an amyloid nucleation score of 0.503 ± 0.51.
For QNRLS, the amyloid nucleation score came out at 2.28 ± 0.61.
Substance PYVFLGVMDPRVYDMLLHAN registered an amyloid nucleation score of -0.085 ± 0.24.
The substance NMSLSWRTNRYAWPMVCLIR came in with an amyloid nucleation score of 0.182 ± 0.23.
The substance GWYEMASAHHMTDWYGW yielded an amyloid nucleation score of -0.337 ± 0.51.
The value for FTMYKCMCSMGRRNSAGGAS was -0.325 ± 0.98; that for SYHPLHVCCSSVFRELVIRD was 2.11 ± 0.43.
The value for LYWNVVN was -0.578 ± 0.5; that for MIVYNMFGMNYYLFILDG was 7.508 ± 0.048.
The value for IDNTLIIDFLFLCNVRTFLR was -0.162 ± 0.24; that for YFCCALSNLLFRKSKHDRVR was 6.872 ± 0.068.
ARLENVTHFRFLQTNLGYIE: the amyloid nucleation score is 0.082 ± 0.67.
In the case of ACLATNCVSFANFASCCWGW it was 7.154 ± 0.059.
As to NLRYYQFRSRSPTAWGHTMF, the amyloid nucleation score is -0.744 ± 0.58.
The value for EFGFVWVKLCNWGISLLQVN was “inactive”; that for SLYNTLEVNDNKHRVNFLVA was 0.652 ± 0.58.
The value for VIYSSIHKLSDGDRVENPRS was -0.933 ± 0.96.
LFVRKVIYVDR came in with an amyloid nucleation score of 0.379 ± 0.33.
In the case of VVVCAVHDDYSINRAIEDER it was -0.183 ± 0.4; in that of AHSCSLV, 0.61 ± 0.7.
In the case of DASSKIRPSIGRMQKHWY it was -0.513 ± 0.85; in that of DCQNYLSFVN, -1.29 ± 2.4; in that of AGRTILKIILQVLALLAPYK, -0.309 ± 1.4.
In the case of LIFVNVSGL it was 6.406 ± 0.054; in that of NRFNRYNVFPVYDQNLESPL, 0.205 ± 0.38.
Take ESMWVGLKINAVSNYR: the amyloid nucleation score is 0.3 ± 0.55.
In the case of LVAFRYLRSGSSRLKFSVLF it was -0.787 ± 0.48; in that of TPKLIAV, -2.05 ± 1.9; in that of EIWWYKVERAVLTVFREDCL, “inactive”.
The value for CCLEWRWLRMEDDPVNGEDV was -0.073 ± 0.43; that for SDNVSRLRILDR was 1.93 ± 0.47; that for SDIMGTVLSYFGINLVYAPC was “inactive”.
In the case of AANSPELVGFSGGPKGCSRG it was -0.137 ± 0.71.
YECKVYKSK registered an amyloid nucleation score of 0.466 ± 0.47.
The value for DCAKTANDSDVLFFDTSGAR was 0.504 ± 0.4; that for VVKSSTPSSDPTTASRIWLL was -0.26 ± 0.43; that for QMYFSFYLLCCLSSEFSI was 3.02 ± 0.11.
In the case of WVWSLWYSRDGVKVFFDRQS it was -0.39 ± 0.34.
The value for SANRTHNWY was -0.451 ± 0.44.
In the case of WVQNHKRQAPRDVLLSSYPD, the amyloid nucleation score entry is “inactive”.
The value for LVVSWKLVPSSSTYCGTMSL was “inactive”; that for CSAFDVIN was -0.556 ± 1.4.
The value for AVLSPGWWESLYPRRVVHSC was -0.354 ± 0.54.
In the case of CMLSCFSDRAWIMQRSVCAC it was 0.879 ± 0.65; in that of KADIFYSLCFLRVEG, -0.338 ± 0.79.
LQVVALW showed an amyloid nucleation score of 0.123 ± 0.56.
The value for VQSIRRKVLETRQERVGAQR was 0.04 ± 0.42; that for LETINSSGRHF was 2.74 ± 0.091.
In the case of IITCRSASETMWFSCFDGLA it was 2.95 ± 0.17; in that of FVKVLDFYLMLSCHTICLFG, -0.832 ± 1.5; in that of CDPGVKYSVSKAYRGWEYAL, -0.042 ± 1.2.
In the case of GQPVFSLDCIYYLLYCFDAT it was 0.595 ± 0.6; in that of FVTNTWRVTVCPSQLFGILR, “inactive”; in that of SAFSLIGLIVMNAGK, 6.04 ± 0.076.
The substance GEGICL came in with an amyloid nucleation score of -0.012 ± 1.1.
The value for NLGFTRSPHAETSLFTH was 0.235 ± 0.47; that for GRDDSGWPSVVVWSPGADQA was 0.243 ± 0.56.
The value for SMYSNRHHDWFR was -0.412 ± 1.4; that for TKDRFYEC was 0.419 ± 0.58.
The value for TVFFPFLTNSRGDRLRDCWM was -0.65 ± 1.1; that for NYASKLYFFLVVMSRFNRKG was -0.115 ± 1.7; that for VLYFYFFIQIRVGIQYSVKN was 2.41 ± 0.41.
VRFFM had an amyloid nucleation score of -0.422 ± 0.45.
In the case of KCMEIILVLRVVRKWGSGGM it was 0.654 ± 0.97.
The value for FDMCSGISGD was 0.839 ± 0.36.
In the case of QNFDHTIHRISVVVPGA it was -0.099 ± 1.6.
For the substance VMLMCYPLTRPRCGTERNMF, the amyloid nucleation score is 0.091 ± 0.49.
The value for ENLRHTLHKFITI was 0.262 ± 0.62; that for VLMLCCMGSTRVCMTYMPDN was 6.885 ± 0.064; that for KLYNGLQHVQAGTLVMQ was 0.46 ± 1.2.
The value for VCYGVLPFEEWKMSFSACVT was 0.369 ± 0.37.
The value for TMYPLIRLYGSMSRNETGEW was 0.437 ± 0.33; that for IIRFTTFPCFNVR was 2.1 ± 0.13.
For MHPFVRSEK, the amyloid nucleation score came out at 0.168 ± 0.36.
The value for ENIPARRLKCPFNTP was -0.511 ± 1.2; that for MITIRVLEQDHLSLSLALSY was -0.597 ± 0.57; that for RDDLNTTWFLGRSTLGLMLW was 0.168 ± 0.6.
The value for CIFPRCVYLYHSVWVDVVGC was -0.097 ± 0.61; that for SNFFVRFNTVTNFSMWDEYY was “inactive”; that for RRLKETKT was “inactive”.
In the case of DMHQRMPVFHGHRATYCC it was 0.102 ± 0.56.
HQFSVHIPCCYSVPGNLYGW: the amyloid nucleation score is 0.888 ± 0.73.
The value for PYSSDAKMCHLLETASNLLV was 0.577 ± 0.56.
Regarding YSGVLFSTAVEYGGRGLVHE, the amyloid nucleation score result was “inactive”.
In the case of FQKYGQCSHYRVVDRKLQCS it was 0.314 ± 1.4; in that of DTSYGLQRVCKGR, 0.429 ± 0.53.
The value for FGANHCKRSNGK was 0.233 ± 0.22; that for CICRRVSKTVLSLQANEAPC was -0.561 ± 0.41; that for CSYSLSRFVLIHDRIVNMVT was 1.35 ± 0.4.
In the case of NWSCTYRMVVS it was -0.598 ± 0.22.
GSSQWFRQVLYFRQSPGWGS returned an amyloid nucleation score of -0.33 ± 0.65.
For the substance WVCRSISPLVRTSLPRYWRN, the amyloid nucleation score result was “inactive”.
In the case of SSISV it was 2.35 ± 0.53.
In turn, VSFNGFLHLFWVFILLNSPW registered an amyloid nucleation score of 6.98 ± 0.085.
The value for MSSIKQY was -1.07 ± 2.4; that for GFNDGVVR was 0.874 ± 0.55.
